Like-named read-outs stand apart in the source and are kept apart here.
What was measured:
Experiment in all cases: EMSA
[1] = target: T1, STK19 (TWH19) WT full-length (Homo sapiens, UniProt P49842 1-254)
[2] = target: T1, STK19 (TWH19) WT full-length; remark: listed apart in the source
STK19 25-C = STK19 25-C (Homo sapiens, UniProt P49842 25-254)
STK19 3KA = STK19 3KA (Homo sapiens, UniProt P49842 1-254, K186A;K190A;K201A)
[3] = target: T1, STK19 (TWH19) WT full-length; remark: listed apart in the source

T1 sequence (P49842 whole entry): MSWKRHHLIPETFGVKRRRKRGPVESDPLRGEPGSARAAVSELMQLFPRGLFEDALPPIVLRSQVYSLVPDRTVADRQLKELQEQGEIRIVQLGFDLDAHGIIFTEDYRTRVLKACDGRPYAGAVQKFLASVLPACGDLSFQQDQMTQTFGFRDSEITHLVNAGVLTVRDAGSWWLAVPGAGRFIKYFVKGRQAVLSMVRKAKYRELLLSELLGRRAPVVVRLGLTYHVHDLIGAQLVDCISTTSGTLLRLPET
Chain of STK19 25-C (P49842 25-254): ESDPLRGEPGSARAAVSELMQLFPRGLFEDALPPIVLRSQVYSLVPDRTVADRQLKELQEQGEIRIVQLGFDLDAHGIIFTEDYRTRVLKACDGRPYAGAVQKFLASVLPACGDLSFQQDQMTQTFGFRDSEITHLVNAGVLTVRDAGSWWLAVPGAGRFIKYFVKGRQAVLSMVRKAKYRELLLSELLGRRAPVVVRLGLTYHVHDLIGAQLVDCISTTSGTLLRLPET
Chain of STK19 3KA (P49842 whole entry K186A/K190A/K201A): as the sequence (P49842 whole entry) above, with K186A, K190A, K201A counted along it

B1: DNA-30 bp-AT (dsDNA)
DNA 1: AAAAAAAAAAAAAAAAAAAAAAAAAAAAAA
DNA 2: TTTTTTTTTTTTTTTTTTTTTTTTTTTTTT
binding result [1]: binds

B2: RNA-30 bp-AT (dsRNA)
RNA 1: AAAAAAAAAAAAAAAAAAAAAAAAAAAAAA
RNA 2: UUUUUUUUUUUUUUUUUUUUUUUUUUUUUU
binding result [2]: binds

B3: DNA1 (dsDNA)
DNA 1: CTGTACTTCCAGGGAATGGAAAGCGACCCTCTGCC
DNA 2: GGCAGAGGGTCGCTTTCCATTCCCTGGAAGTACAG
Kd (STK19 25-C): 3.8 µM
binding result (STK19 3KA): no binding

B4: DNA1 UVB-irradiated (dsDNA)
DNA 1: CTGTACTTCCAGGGAATGGAAAGCGACCCTCTGCC
DNA 2: GGCAGAGGGTCGCTTTCCATTCCCTGGAAGTACAG
modifications: UVB irradiated, lesions undefined
binding result [3]: binds
